This is an account of results in publication PMC8324831, “A synthetic nanobody targeting RBD protects hamsters from SARS-CoV-2 infection” (Nature Communications, 2021).

This test concerns the target SARS-CoV-2 S-RBD with Avi-tag and deca-His tag (residues 330-531) (SARS-CoV-2, UniProt P0DTC2, biotin on the Avi tag (BirA) where immobilised on streptavidin sensors or used in ELISA and FSEC).

B1: SR1 (VHH)
VHH: QVQLVESGGGLVQAGGSLRLSCAASGFPVAAYEMEWYRQAPGKEREWVAAINSMGDQTYYADSVKGRFTISRDNAKNTVYLQMNSLKPEDTAVYYCYVYVGFSYIGQGTQVTVS
Turning to B1, the binding result is recorded as “binds”.

B2: SR2 (VHH)
VHH: QVQLVESGGGLVQAGGSLRLSCAASGFPVKQQEMTWYRQAPGKEREWVAAIESNGHGTEYADSVKGRFTISRDNAKNTVYLQMNSLKPEDTAVYYCYVYVGQSYIGQGTQVTVS
Regarding B2, the binding result was “binds”.

B3: SR24 (VHH)
VHH: QVQLVESGGGLVQAGGSLRLSCAASGFPVNAMEMTWYRQAPGKEREWVAAIMSEGTWTEYADSVKGRFTISRDNAKNTVYLQMNSLKPEDTAVYYCYVYVGASYIGQGTQVTVS
On to B3, for which the binding result is on record as “binds”.

B4: SR26 (VHH)
VHH: QVQLVESGGGLVQAGGSLRLSCAASGFPVNTREMEWYRQAPGKEREWVAAISSNGHKTYYADSVKGRFTISRDNAKNTVYLQMNSLKPEDTAVYYCYVYVGRSYIGQGTQVTVS
For B4, the binding result was “binds”.

B5: SR16 (VHH)
VHH: QVQLVESGGGLVQAGGSLRLSCAASGFPVKKYEMTWYRQAPGKEREWVAAITSKGTYTYYADSVKGRFTISRDNAKNTVYLQMNSLKPEDTAVYYCYVYVGYSYLGQGTQVTVS
B5: the binding result was “binds”.

B6: SR5 (VHH)
VHH: QVQLVESGGGLVQAGGSLRLRCAASGFPVETTEMEWYRQAPGKEREWVAAISSYGSETYYADSVKGRFTISRDNAKNTVYLQMNSLKPEDTAVYYCYVYVGTSYLGQGTQVTVS
On to B6, for which the binding result is “binds”.

B7: SR30 (VHH)
VHH: QVQLVESGGGLVQAGGSLRLSCAASGFPVRKHEMEWYRQAPGKEREWVAAISSKGSNTYYADSVKGRFTISRDNAKNTVYLQMNSLKPEDTAVYYCYVYVGASYIGQGTQVTVS
For the molecule B7, the binding result was “binds”.

B8: SR3 (VHH)
VHH: QVQLVESGGGLVQAGGSLRLSCAASGFPVWQEEMEWYRQAPGKEREWVAAITSYGDTTYYADSVKGRFTISRDNAKNTVYLQMNSLKPEDTAVYYCVVYVGGTYIGQGTQVTVS
Turning to B8, the binding result is on record as “binds”.

B9: SR20 (VHH)
VHH: QVQLVESGGGLVQAGGSLRLSCAASGFPVTSYEMEWYRQAPGKEREWVAAIASWGYHTYYADSVKGRFTISRDNAKNTVYLQMNSLKPEDTAVYYCYVYVGGSYIGQGTQVTVS
Regarding B9, the binding result is recorded as “binds”.

B10: SR29 (VHH)
VHH: QVQLVESGGGLVQAGGSLRLSCAASGFPVSQREMTWYRQAPGKEREWVAAIESEGEQTEYADSVKGRFTISRDNAKNTVYLQMNSLKPEDTAVYYCYVYVGRSYIGQGTQVTVS
Take B10: the binding result is “binds”.

B11: SR12 (VHH)
VHH: QVQLVESGGGLVQAGGSLRLSCAASGFPVNMQEMEWYRQAPGKEREWVAAISSTGWVTYYADSVKGRFTISRDNAKNTVYLQMNSLKPEDTAVYYCYVYVGASYIGQGTQVTVS
B11: the binding result is given as “binds”.

B12: SR15 (VHH)
VHH: QVQLVESGGGLVQAGGSLRLSCAASGFPVKHAEMEWYRQAPGKEREWVAAISSNGSETYYADSVKGRFTISRDNAKNTVYLQMNSLKPEDTAVYYCYVWVGQSYIGQGTQVTVS
As for B12, the binding result is recorded as “binds”.

B13: SR21 (VHH)
VHH: QVQLVESGGGLVQAGGSLRLSCAASGFPVSKTEMEWYRQAPGKEREWVAAIASAGAETYYADSVKGRFTISRDNAKNTVYLQMNSLKPEDTAVYYCYVYVGQSYIGQGTQVTVS
As for B13, the binding result was “binds”.

B14: SR11 (VHH)
VHH: QVQLVESGGGLVQAGGSLRLSCAASGFPVYSMEMEWYRQAPGKEREWVAAISSWGNETHYADSVKGRFTISRDNAKNTVYLQMNSLKPEDTAVYYCYVYVGASYIGQGTQVTVS
Consider B14, for which the binding result was “binds”.

B15: SR22 (VHH)
VHH: QVQLVESGGGLVQAGGSLRLSCAASGFPVASHEMEWYRQAPGKEREWVAAIASSGQWTYYADSVKGRFTISRDNAKNTVYLQMNSLKPEDTAVYYCYVYVGQSYIGQGTQVTVS
Turning to B15, the binding result was “binds”.

B16: SR9 (VHH)
VHH: QVQLVESGGGLVQAGGSLRLSCAASGFPVIAYEMEWYRQAPGKEREWVAAITSSGTSTYYADSVKGRFTISRDNAKNTVYLQMNSLKPEDTAVYYCYVYVGQSYLGQGTQVTVS
As for B16, the binding result is “binds”.

B17: SR23 (VHH)
VHH: QVQLVESGGGLVQAGGSLRLSCAASGFPVYTSEMEWYRQAPGKEREWVAAIASTGAETAYADSVKGRFTISRDNAKNTVYLQMNSLKPEDTAVYYCYVYVGRSYIGQGTQVTVS
B17: the binding result is “binds”.

B18: SR33 (VHH)
VHH: QVQLVESGGGLVQAGGSLRLSCAASGFPVGSNEMEWYRQAPGKEREWVAAIQSSGVFTYYADSVKGRFTISRDNAKNTVYLQMNSLKPEDTAVYYCYVYVGGSYLGQGTQVTVS
On to B18, for which the binding result is “binds”.

B19: SR18 (VHH)
VHH: QVQLVESGGGLVQAGGSLRLSCAASGFPVWFQEMEWYRQAPGKEREWVAAISSQGTHTYYADSVKGRFTISRDNAKNTVYLQMNSLKPEDTAVYYCYVYVGASYLGQGTQVTVS
Regarding B19, the binding result is “binds”.

B20: SR19 (VHH)
VHH: QVQLVESGGGLVQAGGSLRLSCAASGFPVNTMEMEWYRQAPGKEREWVAAINSSGQETYYADSVKGRFTISRDNAKNTVYLQMNSLKPEDTAVYYCYVYVGQSYIGQGTQVTVS
For B20, the binding result is recorded as “binds”.

B21: SR28 (VHH)
VHH: QVQLVESGGGLVQAGGSLRLSCAASGFPVKMAEMEWYRQAPGKEREWVAAIQSAGRETYYADSVKGRFTISRDNAKNTVYLQMNSLKPEDTAVYYCYVYVGAGYIGQGTQVTVS
Turning to B21, the binding result is reported as “binds”.

B22: SR8 (VHH)
VHH: QVQLVESGGGLVQAGGSLRLSCAASGFPVYKREMTWYRQAPGKEREWVAAISSKGVHTEYADSVKGRFTISRDNAKNTVYLQMNSLKPEDTAVYYCYVYVGKSYIGQGTQVTVS
As for B22, the binding result is “binds”.

B23: SR25 (VHH)
VHH: QVQLVESGGGLVQAGGSLRLSCAASGFPVNTAEMVWYRQAPGKEREWVAAIYSEGPITEYADSVKGRFTISRDNAKNTVYLQMNSLKPEDTAVYYCYVYVGSSYIGQGTQVTVS
Take B23: the binding result is reported as “binds”.

B24: SR17 (VHH)
VHH: QVQLVESGGGLVQAGGSLRLSCAASGFPVEGSEMEWYRQAPGKEREWVAAIESNGTHTHYADSVKGRFTISRDNAKNTVYLQMNSLKPEDTAVYYCYVYVGAGYIGQGTQVTVS
For the molecule B24, the binding result is listed as “binds”.

B25: SR13 (VHH)
VHH: QVQLVESGGGLVQAGGSLRLSCAASGFPVDYMEMEWFRQAPGKEREWVAAITSNGRETYYADSVKGRFTVSRDNAKNTVYLQMNSLKPEDTAVYYCYVYVGSSYIGQGTQVTVS
As to B25, the binding result is “binds”.

B26: SR14 (VHH)
VHH: QVQLVESGGGLVQAGGSLRLSCAASGFPVDSEEMTWYRQAPGKEREWVAAITSDGDITEYADSVKGRFTISRDNAKNTVYLQMNSLKPEDTAVYYCYVWVGRSYLGQGTQVTVS
Turning to B26, the binding result is on record as “binds”.

B27: SR31 (VHH)
VHH: QVQLVESGGGLVQAGGSLRLSCAASGFPVWQGEMAWYRQAPGKEREWVAAISSMGYKTYYADSVKGRFTISRDNAKNTVYLQMNSLKPEDTAVYYCAVMVGFWYAGQGTQVTVS
In the case of B27, the binding result is on record as “binds”.

B28: SR32 (VHH)
VHH: QVQLVESGGGLVQAGGSLRLSCAASGFPVNVAKMAWYRQAPGKEREWVAAIDSHGAQTHYADSVKGRFTISRDNAKNTVYLQMNSLKPEDTAVYYCAVHVGFWYAGQGTQVTVS
In the case of B28, the binding result is listed as “binds”.

B29: SR34 (VHH)
VHH: QVQLVESGGGLVQAGGSLRLSCAAGGFPVKDHEMEWYRQAPGKEREWVAAITSSGWGTNTYYADSVKGRFTISRDNAKNTVYLQMNSLKPEDTAVYYCYVYVGSSYIGQGTQVTVS
Regarding B29, the binding result is “binds”.

B30: SR6 (VHH)
VHH: QVQLVESGGGLVQAGGSLRLSCAASGFPVGQQEMTWYRQAPGKEREWVAAILSEGNGTEYADSVKGRFTISRDNAKNTVYLQMNSLKPEDTAVYYCAVYVGATYIGQGTQVTVS
Consider B30, for which the binding result was “binds”.

B31: SR10 (VHH)
VHH: QVQLVESGGGLVQAGGSLRLSCAASGFPVNKREMTWYRQAPGKEREWVAAITSEGRSTEYADSVKGRFTISRDNAKNTVYLQMNSLKPEDTAVYYCYVFVGSSYIGQGTQVTVS
For the molecule B31, the binding result is reported as “binds”.

B32: SR7 (VHH)
VHH: QVQLVESGGGLVQAGGSLRLSCAASGFPVWSNEMEWYRQAPGKEREWVAAITSYGTTEYADSVKGRFTISRDNAKNTVYLQMNSLKPEDTAVYYCYVYVGYSYIGQGTQVTVS
B32: the binding result is “binds”.

B33: SR27 (VHH)
VHH: QVQLVESGGGLVQAGGSLRLSCAASGFPVWEAEMEWYRQAPGKEREWVAAISSIGTSTAYADSVKGRFTISRDNAKNTVYLQMNSLKPEDTAVYYCIVYVGKTYIGQGTQVTVS
As to B33, the binding result is reported as “binds”.
